For the assay, the target named is T1, cyclic nucleotide-gated channel beta 3 (CNGB3) (human, UniProt Q9NQW8 1-809, limits assumed).
T1 construct: Endogenous protein in patient material; also called human CNGB3
T1 sequence (looked up): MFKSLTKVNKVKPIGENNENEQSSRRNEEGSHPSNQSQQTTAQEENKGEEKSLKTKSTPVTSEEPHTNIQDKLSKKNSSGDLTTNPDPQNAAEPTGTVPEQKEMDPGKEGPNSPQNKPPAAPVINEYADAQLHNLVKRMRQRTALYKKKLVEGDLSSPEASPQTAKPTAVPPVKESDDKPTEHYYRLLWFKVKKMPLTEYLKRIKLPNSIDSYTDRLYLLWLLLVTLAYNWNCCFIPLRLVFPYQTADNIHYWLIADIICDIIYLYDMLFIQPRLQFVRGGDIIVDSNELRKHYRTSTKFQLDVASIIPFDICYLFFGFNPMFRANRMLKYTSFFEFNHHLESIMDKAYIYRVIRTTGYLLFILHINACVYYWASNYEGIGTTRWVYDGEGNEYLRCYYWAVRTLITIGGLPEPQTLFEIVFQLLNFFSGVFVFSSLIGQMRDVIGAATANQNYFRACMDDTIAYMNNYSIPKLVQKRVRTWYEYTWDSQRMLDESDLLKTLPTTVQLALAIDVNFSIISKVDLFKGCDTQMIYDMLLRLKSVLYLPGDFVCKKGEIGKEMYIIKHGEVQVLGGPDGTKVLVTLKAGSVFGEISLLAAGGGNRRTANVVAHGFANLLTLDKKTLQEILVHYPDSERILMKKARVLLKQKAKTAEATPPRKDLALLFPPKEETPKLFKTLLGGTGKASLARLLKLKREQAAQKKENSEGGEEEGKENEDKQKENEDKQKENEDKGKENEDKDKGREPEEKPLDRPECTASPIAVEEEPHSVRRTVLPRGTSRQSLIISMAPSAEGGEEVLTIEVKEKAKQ
The experiment in a line: avidin blotting: serum exosome proteins after SDS-PAGE on PVDF, probed with 1.0 ug/mL biotinylated Z13 peptide and HRP-avidin. The method, then: The exosome was isolated from the serum using Exosome Isolation Kit (manufactured by Fujifilm Wako Pure Chemical Industries, Ltd.) according to the manufacturer's instruction. Specifically, first, the serum was centrifuged at 1,000×g at 4° C.° for 20 minutes, and the supernatant was recovered. The collected supernatant was centrifuged at 10,000×g at 4° C. for 30 minutes, and the supernatant was transferred to a new tube. Subsequently, 1.0 mL of the supernatant was mixed with exosome capture beads with a rotator at 4° C. for 180 minutes. Subsequently, after washing the capture beads, the exosome was eluted with 100 μL of an elution buffer and stored at −20° C.
An exosome isolated from 800 μL of serum was mixed with a concentrated Laemmli buffer to prepare a measurement sample. The measurement sample was isolated by SDS-PAGE and then transferred to a PVDF membrane. The PVDF membrane was blocked in 5% BSA-containing TBST (0.1 v/v % Tween-20) at room temperature for 60 minutes. The PVDF membrane after blotting was washed and incubated overnight at 4° C.° in 1.0 μg/mL of biotinylated Z13 peptide-containing TBST. […] The CNGB3 on the membrane was detected using a CCD camera system (manufactured by ATTO) and ECL prime (manufactured by GE Healthcare). […]

Where no end group is shown, it is not given here.

B1: biotinylated Z13 peptide (peptide)
peptide: VRRADNRPG
modifications: also: biotin bound, position not given here
notes: Synthesized by GenScript; used at 1.0 ug/mL as the probe in avidin blotting, detected with HRP-avidin
On to B1, for which the binding result was “binds”.
